Experimental data reported in patent US10314894B2, “Treatment of cardio-renal disease using PCSK6” (THE CLEVELAND CLINIC FOUNDATION, priority 2014, dated 2019).

Columns and labels:
[1] = target: T1, corin mutant R801A (Homo sapiens, UniProt Q9Y5Q5, R801A); assay: PCSK6-mediated corin activation in HEK293 cells, corin mutant R801A (control); type: cell-based; conditions: corin mutant R801A lacking the cleavage site
T1 construct: expressed in transfected cells; host or cells: HEK293
T1 sequence (Q9Y5Q5 1-1042 R801A): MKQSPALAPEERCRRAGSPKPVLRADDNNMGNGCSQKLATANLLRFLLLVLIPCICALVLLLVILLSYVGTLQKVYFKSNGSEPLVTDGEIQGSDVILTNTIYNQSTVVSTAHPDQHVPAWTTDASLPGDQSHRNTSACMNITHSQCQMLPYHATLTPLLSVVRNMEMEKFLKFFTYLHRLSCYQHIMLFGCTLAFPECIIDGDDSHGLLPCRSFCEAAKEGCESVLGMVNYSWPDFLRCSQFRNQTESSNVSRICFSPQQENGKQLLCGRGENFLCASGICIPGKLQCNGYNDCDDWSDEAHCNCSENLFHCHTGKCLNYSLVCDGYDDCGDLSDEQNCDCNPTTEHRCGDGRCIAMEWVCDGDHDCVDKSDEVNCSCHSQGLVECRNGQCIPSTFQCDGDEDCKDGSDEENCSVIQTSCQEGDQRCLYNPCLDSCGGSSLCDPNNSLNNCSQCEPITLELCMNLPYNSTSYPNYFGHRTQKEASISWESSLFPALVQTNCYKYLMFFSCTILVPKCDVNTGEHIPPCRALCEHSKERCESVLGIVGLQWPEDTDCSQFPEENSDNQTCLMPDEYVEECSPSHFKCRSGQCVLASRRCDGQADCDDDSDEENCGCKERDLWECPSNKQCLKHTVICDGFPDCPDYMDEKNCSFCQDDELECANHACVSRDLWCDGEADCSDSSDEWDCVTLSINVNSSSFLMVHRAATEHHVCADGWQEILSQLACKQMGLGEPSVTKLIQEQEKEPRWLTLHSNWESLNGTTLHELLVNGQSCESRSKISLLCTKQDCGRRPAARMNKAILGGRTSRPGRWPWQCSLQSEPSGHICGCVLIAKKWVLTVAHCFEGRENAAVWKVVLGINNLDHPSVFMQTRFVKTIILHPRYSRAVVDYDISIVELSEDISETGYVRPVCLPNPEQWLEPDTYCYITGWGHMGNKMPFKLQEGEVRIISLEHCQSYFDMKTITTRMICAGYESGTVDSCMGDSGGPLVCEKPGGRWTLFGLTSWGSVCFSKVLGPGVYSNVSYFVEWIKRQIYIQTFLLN
Text: (§1) Plasmids expressing human corin WT and mutants R801A, S985A, T555I, Q568P, T555I/Q568P, K317E, S472G and R539C were reported previously. Dong, N. et al., J Biol Chem 289, 17909-17916 (2014); Knappe et al., J Biol Chem 278, 52363-52370 (2003); Wu et al., J Biol Chem 277, 16900-16905. (2002). Plasmids expressing human PCSK1-9 were made by cloning respective cDNAs into pcNDA3.1 vector. Recombinant corin and PCSK proteins encoded by these plasmids contained a C-terminal V5 or flag tag for protein detection in Western blotting.
(§2) HEK293 and HL-1 cells were transfected with corin or PCSK6 expression plasmids. After 48-72 h, cells were lysed in a buffer containing 25 mM Tris-HCl, pH 7.4, 150 mM NaCl, 1 mM EDTA, 1% (v/v) NP-40, and 1% (v/v) protease inhibitor cocktail. Recombinant corin and PCSK6 proteins were immunoprecipitated with an anti-V5 or anti-flag antibody. Western blotting was carried out to analyze corin expression and activation or PCSK6 expression with or without reducing agents. Percentage of corin activation (corin-p vs. corin fragments) was quantified by densitometric analysis of Western blots.

[2] = target: T2, corin variant Q568P (Homo sapiens, UniProt Q9Y5Q5, Q568P); assay: PCSK6-mediated corin activation in HEK293 cells, corin variant Q568P; type: cell-based; conditions: Western
T2 construct: expressed in transfected cells; host or cells: HEK293
T2 sequence (Q9Y5Q5 1-1042 Q568P): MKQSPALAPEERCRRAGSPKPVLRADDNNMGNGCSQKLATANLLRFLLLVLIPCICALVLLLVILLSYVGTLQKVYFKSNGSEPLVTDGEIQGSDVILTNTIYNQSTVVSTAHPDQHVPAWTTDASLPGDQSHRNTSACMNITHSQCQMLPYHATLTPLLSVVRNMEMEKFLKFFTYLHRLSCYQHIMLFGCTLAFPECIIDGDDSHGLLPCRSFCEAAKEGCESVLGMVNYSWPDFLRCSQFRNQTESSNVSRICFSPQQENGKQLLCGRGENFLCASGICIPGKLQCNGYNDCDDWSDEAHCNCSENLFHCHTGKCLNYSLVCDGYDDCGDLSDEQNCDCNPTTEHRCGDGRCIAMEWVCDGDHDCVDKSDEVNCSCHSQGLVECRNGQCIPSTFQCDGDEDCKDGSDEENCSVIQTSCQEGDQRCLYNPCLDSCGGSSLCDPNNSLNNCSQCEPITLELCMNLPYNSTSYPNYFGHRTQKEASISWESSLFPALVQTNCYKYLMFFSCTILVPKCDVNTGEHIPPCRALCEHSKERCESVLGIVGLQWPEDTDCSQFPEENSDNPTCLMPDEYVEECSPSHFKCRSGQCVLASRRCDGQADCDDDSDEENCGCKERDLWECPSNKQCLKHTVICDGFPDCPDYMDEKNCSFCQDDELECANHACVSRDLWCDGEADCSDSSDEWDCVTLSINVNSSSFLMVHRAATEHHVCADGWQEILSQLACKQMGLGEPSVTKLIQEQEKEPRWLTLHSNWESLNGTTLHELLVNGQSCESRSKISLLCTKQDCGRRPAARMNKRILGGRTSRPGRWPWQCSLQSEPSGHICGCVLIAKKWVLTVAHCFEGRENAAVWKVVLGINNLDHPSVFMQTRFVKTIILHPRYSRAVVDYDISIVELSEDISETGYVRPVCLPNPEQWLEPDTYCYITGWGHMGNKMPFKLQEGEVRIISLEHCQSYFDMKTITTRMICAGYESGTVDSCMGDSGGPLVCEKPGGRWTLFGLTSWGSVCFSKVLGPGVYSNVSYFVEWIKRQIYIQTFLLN
Text: as §1, §2

PCSK6-mediated activation cleavage [1]: no activation cleavage was detected
PCSK6-mediated activation cleavage [2]: detected
B1: proprotein convertase subtilisin/kexin-6 (protein, listed as Homo sapiens)
chain: MPPRAPPAPGPRPPPRAAAATDTAAGAGGAGGAGGAGGPGFRPLAPRPWRWLLLLALPAACSAPPPRPVYTNHWAVQVLGGPAEADRVAAAHGYLNLGQIGNLEDYYHFYHSKTFKRSTLSSRGPHTFLRMDPQVKWLQQQEVKRRVKRQVRSDPQALYFNDPIWSNMWYLHCGDKNSRCRSEMNVQAAWKRGYTGKNVVVTILDDGIERNHPDLAPNYDSYASYDVNGNDYDPSPRYDASNENKHGTRCAGEVAASANNSYCIVGIAYNAKIGGIRMLDGDVTDVVEAKSLGIRPNYIDIYSASWGPDDDGKTVDGPGRLAKQAFEYGIKKGRQGLGSIFVWASGNGGREGDYCSCDGYTNSIYTISVSSATENGYKPWYLEECASTLATTYSSGAFYERKIVTTDLRQRCTDGHTGTSVSAPMVAGIIALALEANSQLTWRDVQHLLVKTSRPAHLKASDWKVNGAGHKVSHFYGFGLVDAEALVVEAKKWTAVPSQHMCVAASDKRPRSIPLVQVLRTTALTSACAEHSDQRVVYLEHVVVRTSISHPRRGDLQIYLVSPSGTKSQLLAKRLLDLSNEGFTNWEFMTVHCWGEKAEGQWTLEIQDLPSQVRNPEKQGKLKEWSLILYGTAEHPYHTFSAHQSRSRMLELSAPELEPPKAALSPSQVEVPEDEEDYTAQSTPGSANILQTSVCHPECGDKGCDGPNADQCLNCVHFSLGSVKTSRKCVSVCPLGYFGDTAARRCRRCHKGCETCSSRAATQCLSCRRGFYHHQEMNTCVTLCPAGFYADESQKNCLKCHPSCKKCVDEPEKCTVCKEGFSLARGSCIPDCEPGTYFDSELIRCGECHHTCGTCVGPGREECIHCAKNFHFHDWKCVPACGEGFYPEEMPGLPHKVCRRCDENCLSCAGSSRNCSRCKTGFTQLGTSCITNHTCSNADETFCEMVKSNRLCERKLFIQFCCRTCLLAG
modifications: C-terminal FLAG tag
